In patent US7067619 (LA JOLLA CANCER RESEARCH FOUNDATION, dated 2006):
Bridge positions count the residues as written; N and C are the ends. Ends that are not written are not given here. * marks the point of attachment. Cam = NC(=O)C*

B1: cyclic peptide GACRGDCLGA (peptide)
peptide: GACRGDCLGA
modifications: disulfide 3-7 (inferred)
notes: synthetic; also called cyclic CRGDCL peptide
B2: vitronectin purified from human plasma (ligand, UniProt P04004 20-478, looked up)
chain: DQESCKGRCTEGFNVDKKCQCDELCSYYQSCCTDYTAECKPQVTRGDVFTMPEDEYTVYDDGEEKNNATVHEQVGGPSLTSDLQAQSKGNPEQTPVLKPEEEAPAPEVGASKPEGIDSRPETLHPGRPQPPAEEELCSGKPFDAFTDLKNGSLFAFRGQYCYELDEKAVRPGYPKLIRDVWGIEGPIDAAFTRINCQGKTYLFKGSQYWRFEDGVLDPDYPRNISDGFDGIPDNVDAALALPAHSYSGRERVYFFKGKQYWEYQFQHQPSQEECEGSSLSAVFEHFAMMQRDSWEDIFELLFWGRTSAGTRQPQFISRDWHGVPGQVDAAMAGRIYISGMAPRPSLAKKQRFRHRNRKGYRSQRGHSRGRNQNSRRPSRATWLSLFSSEESNLGANNYDDYRMDWLVPATCEPIQSVFFFSGDKYYRVNLRTRRVDTVDPPYPRSIAQYWLGCPAPGHL
notes: also called labeled vitronectin
B3: CRGDCL-displaying phage (peptide)
peptide: CRGDCL
notes: on fuse 5 phage, fused to pIII; also called phage expressing CRGDCL
B4: cyclized peptide ACDCRGDCFCG (peptide)
peptide: ACDCRGDCFCG
modifications: disulfide (positions not given here); also: two disulfide bonds, pairing not determined
notes: synthetic; also called double disulfide bond-containing peptide
B5: CRGDGWC phage (peptide)
peptide: CRGDGWC
modifications: disulfide 1-7 (inferred)
notes: on fuse 5 phage, fused to pIII; also called phage expressing the peptide A*CRGDGWC*G; not shown: The pIII coat protein of the fuse 5 phage vector and its junction residues
B6: CRGDGFC phage (peptide)
peptide: CRGDGFC
modifications: disulfide 1-7 (inferred)
notes: on fuse 5 phage, fused to pIII; not shown: The pIII coat protein of the fuse 5 phage vector and its junction residues

What was measured:
[1] = biological target: T1, α5β1 integrin isolated from human placental extract (human, UniProt P08648 42-1049; P05556 21-798); assay: phage panning on coated integrin
T1 construct: coated on plastic wells or captured by anti-α5 antibody; also called fibronectin receptor
Method: In the first panning, the integrins were coated at 5 µg per well, and the library pool was incubated for 4 hours at 25° C. in TBS buffer containing 1% bovine serum albumin and 1 mM MnCl_2 (α_5β_1, α_vβ_3) 1 mM MgCl_2 ($\alphaIIb\beta_3$) or 1 mM CaCl_2 (α_vβ_5).

[2] = biological target: T1, α5β1 integrin isolated from human …; assay: phage panning on coated integrin; remark: listed apart in the source
[3] = biological target: T2, αvβ3 integrin isolated from human placental extract (human, UniProt P06756 31-1048; P05106 27-788); assay: competition with CRGDCL phage on αvβ3-coated wells
T2 construct: isolated on GRGDSPK-Sepharose; said to be primarily αvβ3
Method: The ability of […] […] [SEQ ID NO:5] was added to compete for binding. Binding was quantitated as described above.

[4] = biological target: T1, α5β1 integrin isolated from human …; assay: competition with RRETAWA phage on α5β1-coated wells
[5] = biological target: α5β1 integrin composed of human α5 and CHO β1 on B2/α27 cells (human; Chinese hamster (CHO), UniProt P08648 42-1049); assay: cell-based or functional assay
[6] = biological target: T3, αvβ5 integrin isolated from human placental extract (human, UniProt P06756 31-1048; P18084 24-799); assay: affinity chromatography of placental extract
[7] = biological target: T1, α5β1 integrin isolated from human …; assay: phage binding to α5β1-coated wells
[8] = biological target: T2, αvβ3 integrin isolated from human …; assay: competition with phage on αvβ3-coated wells
[9] = biological target: T3, αvβ5 integrin isolated from human …; assay: competition with … phage on αvβ5-coated wells
Method: [SEQ ID NO:10] sequence were incubated for 1 hour in integrin-coated wells in the presence of the competing peptides or dimethyl sulfoxide solvent as a control.

[10] = biological target: αvβ3 integrin on IMR-90 cells (UniProt P06756 31-1048; P05106 27-788); assay: cell-based or functional assay
[11] = biological target: αvβ5 integrin on HT-29 and UCLA-P3 cells (UniProt P06756 31-1048; P18084 24-799); assay: cell-based or functional assay
[12] = biological target: αvβ1 integrin on CHO cell line B2/v7; assay: cell-based or functional assay
[13] = biological target: T2, αvβ3 integrin isolated from human …; assay: affinity chromatography of placental extract

T2 sequence (P06756 31-1048, chain 1 of 2): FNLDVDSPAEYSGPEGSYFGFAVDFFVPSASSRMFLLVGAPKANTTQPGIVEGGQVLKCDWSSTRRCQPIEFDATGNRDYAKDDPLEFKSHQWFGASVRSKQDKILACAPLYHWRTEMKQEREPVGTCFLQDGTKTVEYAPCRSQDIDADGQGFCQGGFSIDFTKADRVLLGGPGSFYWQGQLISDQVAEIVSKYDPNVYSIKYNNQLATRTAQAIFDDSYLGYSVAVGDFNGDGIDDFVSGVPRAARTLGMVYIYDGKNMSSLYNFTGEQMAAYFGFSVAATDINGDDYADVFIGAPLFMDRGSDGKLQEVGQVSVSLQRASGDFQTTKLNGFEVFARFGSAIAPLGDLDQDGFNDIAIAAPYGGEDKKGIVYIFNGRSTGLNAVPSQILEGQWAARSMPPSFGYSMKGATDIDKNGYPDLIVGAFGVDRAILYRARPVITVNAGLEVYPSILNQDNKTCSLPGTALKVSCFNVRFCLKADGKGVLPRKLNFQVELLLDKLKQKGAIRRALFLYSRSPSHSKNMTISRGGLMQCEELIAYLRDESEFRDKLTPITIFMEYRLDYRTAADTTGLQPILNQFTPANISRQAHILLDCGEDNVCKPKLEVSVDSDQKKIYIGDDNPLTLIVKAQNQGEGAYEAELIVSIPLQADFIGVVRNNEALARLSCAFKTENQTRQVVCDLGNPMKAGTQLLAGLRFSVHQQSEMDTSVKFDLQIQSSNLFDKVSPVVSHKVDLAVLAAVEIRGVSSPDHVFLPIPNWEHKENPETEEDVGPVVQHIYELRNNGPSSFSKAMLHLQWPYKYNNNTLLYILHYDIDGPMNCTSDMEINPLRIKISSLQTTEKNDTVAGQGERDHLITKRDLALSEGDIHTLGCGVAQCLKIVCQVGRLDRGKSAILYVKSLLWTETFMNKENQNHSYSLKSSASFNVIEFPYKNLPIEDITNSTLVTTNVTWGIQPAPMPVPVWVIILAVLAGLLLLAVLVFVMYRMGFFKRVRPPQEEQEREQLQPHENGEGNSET
T2 sequence (P05106 27-788, chain 2 of 2): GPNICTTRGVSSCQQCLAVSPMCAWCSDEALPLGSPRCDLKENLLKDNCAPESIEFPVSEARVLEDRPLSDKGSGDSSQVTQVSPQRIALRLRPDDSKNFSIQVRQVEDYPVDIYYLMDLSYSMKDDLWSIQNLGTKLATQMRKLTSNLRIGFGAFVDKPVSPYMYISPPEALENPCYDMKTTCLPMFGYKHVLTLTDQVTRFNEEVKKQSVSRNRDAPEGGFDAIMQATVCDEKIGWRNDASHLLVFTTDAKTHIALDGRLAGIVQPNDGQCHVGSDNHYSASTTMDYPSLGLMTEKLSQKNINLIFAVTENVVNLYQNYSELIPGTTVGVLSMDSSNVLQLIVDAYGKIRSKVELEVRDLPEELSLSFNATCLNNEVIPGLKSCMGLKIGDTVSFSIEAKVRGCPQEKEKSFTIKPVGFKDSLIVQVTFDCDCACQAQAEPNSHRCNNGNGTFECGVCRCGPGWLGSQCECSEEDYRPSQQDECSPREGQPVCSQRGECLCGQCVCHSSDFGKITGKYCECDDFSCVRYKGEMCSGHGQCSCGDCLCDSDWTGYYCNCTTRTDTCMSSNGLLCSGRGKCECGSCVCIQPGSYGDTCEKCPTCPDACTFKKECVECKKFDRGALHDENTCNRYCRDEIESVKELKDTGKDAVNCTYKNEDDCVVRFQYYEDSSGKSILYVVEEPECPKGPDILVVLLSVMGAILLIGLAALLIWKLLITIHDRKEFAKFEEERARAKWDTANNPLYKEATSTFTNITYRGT
αvβ5 integrin on HT-29 and UCLA-P3 cells, sequence (P06756 31-1048, chain 1 of 2): as the sequence (P06756 31-1048, chain 1 of 2) above
αvβ5 integrin on HT-29 and UCLA-P3 cells, sequence (P18084 24-799, chain 2 of 2): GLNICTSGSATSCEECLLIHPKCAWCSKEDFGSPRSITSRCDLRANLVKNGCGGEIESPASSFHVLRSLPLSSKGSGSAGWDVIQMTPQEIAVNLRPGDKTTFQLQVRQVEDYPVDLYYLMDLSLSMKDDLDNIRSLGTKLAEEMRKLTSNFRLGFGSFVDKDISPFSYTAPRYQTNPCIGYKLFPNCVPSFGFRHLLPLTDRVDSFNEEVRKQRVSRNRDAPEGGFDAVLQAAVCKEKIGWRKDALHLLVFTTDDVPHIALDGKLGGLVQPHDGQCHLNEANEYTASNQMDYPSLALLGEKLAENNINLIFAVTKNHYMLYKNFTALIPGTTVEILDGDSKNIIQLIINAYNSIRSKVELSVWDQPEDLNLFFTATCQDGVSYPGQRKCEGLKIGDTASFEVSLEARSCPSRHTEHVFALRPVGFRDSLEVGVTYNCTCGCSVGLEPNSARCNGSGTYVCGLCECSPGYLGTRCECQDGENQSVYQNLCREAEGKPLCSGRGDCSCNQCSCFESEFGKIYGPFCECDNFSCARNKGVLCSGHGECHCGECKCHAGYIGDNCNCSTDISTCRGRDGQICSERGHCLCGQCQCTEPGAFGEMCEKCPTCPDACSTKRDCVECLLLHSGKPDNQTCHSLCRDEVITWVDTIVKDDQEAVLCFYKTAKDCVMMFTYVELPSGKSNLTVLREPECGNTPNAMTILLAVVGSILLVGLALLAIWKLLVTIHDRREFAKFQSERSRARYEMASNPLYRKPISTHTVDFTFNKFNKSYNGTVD
T1 sequence (P08648 42-1049, chain 1 of 2): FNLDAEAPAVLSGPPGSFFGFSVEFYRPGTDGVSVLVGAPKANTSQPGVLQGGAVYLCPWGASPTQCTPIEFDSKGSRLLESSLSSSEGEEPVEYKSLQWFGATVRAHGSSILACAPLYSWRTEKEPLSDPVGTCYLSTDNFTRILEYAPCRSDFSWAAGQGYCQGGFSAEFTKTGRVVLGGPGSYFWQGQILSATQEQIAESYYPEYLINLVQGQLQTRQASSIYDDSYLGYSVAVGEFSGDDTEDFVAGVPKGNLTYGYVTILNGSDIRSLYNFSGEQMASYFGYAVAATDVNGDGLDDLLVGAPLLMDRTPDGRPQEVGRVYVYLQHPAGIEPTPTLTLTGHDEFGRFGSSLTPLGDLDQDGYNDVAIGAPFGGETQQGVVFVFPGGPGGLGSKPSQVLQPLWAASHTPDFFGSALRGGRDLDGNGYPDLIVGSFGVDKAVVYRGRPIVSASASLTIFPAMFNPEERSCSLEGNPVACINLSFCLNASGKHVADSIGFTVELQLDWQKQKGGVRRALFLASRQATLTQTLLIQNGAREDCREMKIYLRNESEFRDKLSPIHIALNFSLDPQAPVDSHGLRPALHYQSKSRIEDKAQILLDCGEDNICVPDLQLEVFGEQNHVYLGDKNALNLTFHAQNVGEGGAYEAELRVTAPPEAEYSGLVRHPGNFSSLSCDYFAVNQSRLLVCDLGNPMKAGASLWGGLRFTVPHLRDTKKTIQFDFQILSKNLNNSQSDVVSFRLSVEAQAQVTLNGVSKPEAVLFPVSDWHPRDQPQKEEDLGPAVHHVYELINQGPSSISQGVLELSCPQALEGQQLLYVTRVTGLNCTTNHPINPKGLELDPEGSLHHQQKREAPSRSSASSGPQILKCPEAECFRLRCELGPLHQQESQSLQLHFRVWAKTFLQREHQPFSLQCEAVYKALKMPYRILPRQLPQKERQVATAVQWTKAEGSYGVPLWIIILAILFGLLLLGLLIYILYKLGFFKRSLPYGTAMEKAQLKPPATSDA
T1 sequence (P05556 21-798, chain 2 of 2): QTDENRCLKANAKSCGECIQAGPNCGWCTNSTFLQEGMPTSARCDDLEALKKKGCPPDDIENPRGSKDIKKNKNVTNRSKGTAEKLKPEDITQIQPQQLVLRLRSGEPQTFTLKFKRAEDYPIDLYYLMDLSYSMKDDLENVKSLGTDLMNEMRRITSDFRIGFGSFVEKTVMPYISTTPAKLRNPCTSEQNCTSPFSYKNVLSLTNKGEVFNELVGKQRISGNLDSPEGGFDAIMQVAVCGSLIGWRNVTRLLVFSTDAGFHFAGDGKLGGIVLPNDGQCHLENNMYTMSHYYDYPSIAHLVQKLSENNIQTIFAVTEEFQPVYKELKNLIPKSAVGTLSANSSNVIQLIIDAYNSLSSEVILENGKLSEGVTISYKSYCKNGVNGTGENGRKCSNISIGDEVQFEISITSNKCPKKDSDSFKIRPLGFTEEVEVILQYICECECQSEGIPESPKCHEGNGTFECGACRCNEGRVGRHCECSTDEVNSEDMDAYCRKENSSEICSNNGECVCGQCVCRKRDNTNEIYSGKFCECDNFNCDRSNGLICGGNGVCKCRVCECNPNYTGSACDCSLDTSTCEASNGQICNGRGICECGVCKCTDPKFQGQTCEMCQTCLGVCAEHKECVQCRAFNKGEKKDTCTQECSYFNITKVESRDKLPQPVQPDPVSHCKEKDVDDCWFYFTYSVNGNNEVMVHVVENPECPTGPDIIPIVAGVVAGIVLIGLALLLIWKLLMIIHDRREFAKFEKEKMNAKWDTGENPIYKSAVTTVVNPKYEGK
α5β1 integrin composed of human α5 and CHO β1 on B2/α27 cells, sequence (P08648 42-1049): as the sequence (P08648 42-1049, chain 1 of 2) above
αvβ3 integrin on IMR-90 cells, sequence (P06756 31-1048, chain 1 of 2): as the sequence (P06756 31-1048, chain 1 of 2) above
αvβ3 integrin on IMR-90 cells, sequence (P05106 27-788, chain 2 of 2): as the sequence (P05106 27-788, chain 2 of 2) above
T3 sequence (P06756 31-1048, chain 1 of 2): as the sequence (P06756 31-1048, chain 1 of 2) above
T3 sequence (P18084 24-799, chain 2 of 2): as the sequence (P18084 24-799, chain 2 of 2) above

| Binder | binding result [2] | other results |
| --- | --- | --- |
| CKWRSARDLC (on fuse 5 phage, fused to pIII) [CKWRSARDLC phage] |  | binding result [1]: binds |
| DCRRETSWAC (on fuse 5 phage, fused to pIII) [DCRRETSWAC phage] | binds |  |
| RCREETAWAC (on fuse 5 phage, fused to pIII) [RCREETAWAC phage] | binds |  |
| RCREETLWAC (on fuse 5 phage, fused to pIII) [RCREETLWAC phage] | binds |  |
| RCRSETAWAC (on fuse 5 phage, fused to pIII) [RCRSETAWAC phage] | binds |  |
| WCRRETNWAC (on fuse 5 phage, fused to pIII) [WCRRETNWAC phage] | binds |  |
| SCREETGWGC (on fuse 5 phage, fused to pIII) [SCREETGWGC phage] | binds |  |
| CGADSEEGPC (on fuse 5 phage, fused to pIII) [CGADSEEGPC phage] |  | binding result [1]: binds |
| ECRRETAWAC (on fuse 5 phage, fused to pIII) [ECRRETAWAC phage] | binds |  |
| ECRRETAWSC (on fuse 5 phage, fused to pIII) [ECRRETAWSC phage] | binds |  |
| VCRKETAWAC (on fuse 5 phage, fused to pIII) [VCRKETAWAC phage] | binds |  |
| ACRRETAWAC (on fuse 5 phage, fused to pIII) [ACRRETAWAC phage] | binds |  |
| GCRRETAWAC (on fuse 5 phage, fused to pIII) [GCRRETAWAC phage] | binds |  |
| ECRRETAWWC (on fuse 5 phage, fused to pIII) [ECRRETAWWC phage] | binds |  |
| HCRRETAWAC (on fuse 5 phage, fused to pIII) [HCRRETAWAC phage] | binds |  |
| GCRKETAWAC (on fuse 5 phage, fused to pIII) [GCRKETAWAC phage] | binds |  |
| ECRRETAWGC (on fuse 5 phage, fused to pIII) [ECRRETAWGC phage] | binds |  |
| GCRRETEWAC (on fuse 5 phage, fused to pIII) [GCRRETEWAC phage] | binds |  |
| SCRRETQWHC (on fuse 5 phage, fused to pIII) [SCRRETQWHC phage] | binds |  |
| CREQPASRSC (on fuse 5 phage, fused to pIII) [CREQPASRSC phage] |  | binding result [1]: binds |
| CQGIDGTPAC (on fuse 5 phage, fused to pIII) [CQGIDGTPAC phage] |  | binding result [1]: binds |
| B1 |  | binding result [3]: binds; binding result [4]: binds |
| SCRDETLWWC (on fuse 5 phage, fused to pIII) [SCRDETLWWC phage] | binds |  |
| CRRETAWAC (on fuse 5 phage, fused to pIII) [CRRETAWAC phage] | binds |  |

| Binder | binding result [2] | other results |
| --- | --- | --- |
| DCRRETAWRC (on fuse 5 phage, fused to pIII) [DCRRETAWRC phage] | binds |  |
| DCRHETAWAC (on fuse 5 phage, fused to pIII) [DCRHETAWAC phage] | binds |  |
| SCRAETAWMC (on fuse 5 phage, fused to pIII) [SCRAETAWMC phage] | binds |  |
| GAC(Cam)RRETAWAC(Cam)GA [GACRRETAWACGA linearized by reduction and alkylation] |  | fold reduction of activity against the cyclic peptide, cell attachment to fibronectin [5]: ~50 × |
| B2 |  | binding result [6]: binds |
| B3 |  | binding result [7]: binds |
| ACRAETAWRC (on fuse 5 phage, fused to pIII) [ACRAETAWRC phage] | binds |  |
| GCREETAWQC (on fuse 5 phage, fused to pIII) [GCREETAWQC phage] | binds |  |
| CRSETYWKC (on fuse 5 phage, fused to pIII) [CRSETYWKC phage] | binds |  |
| B4 |  | fold better inhibition than *CRGDC* [8]: 5 fold; fold more potent than *CRGDC* [9]: 10 fold; IC50 of inhibition of attachment of IMR-90 cells to vitronectin [10]: 200 nM; fold more effective than *CRGDC*, attachment of IMR-90 cells to vitronectin [10]: 20 fold; IC50 of inhibition of attachment of HT-29 cells to vitronectin [11]: 600 nM; IC50 of inhibition of attachment of UCLA-P3 cells to vitronectin [11]: 600 nM; fold enhancement in activity relative to *CRGDC*, UCLA-P3 cells [11]: 20 fold; fold higher affinity than *CRGDC*, attachment of HT-29 cells to vitronectin [11]: 40 fold; fold higher affinity than A*CRGDGWC*G, attachment of HT-29 cells to vitronectin [11]: 40 fold |
| YCRPETAWAC (on fuse 5 phage, fused to pIII) [YCRPETAWAC phage] | binds |  |
| RCRAETGWAC (on fuse 5 phage, fused to pIII) [RCRAETGWAC phage] | binds |  |
| PCREETAWRC (on fuse 5 phage, fused to pIII) [PCREETAWRC phage] | binds |  |
| WCREETGWWC (on fuse 5 phage, fused to pIII) [WCREETGWWC phage] | binds |  |
| WCRGETAWAC (on fuse 5 phage, fused to pIII) [WCRGETAWAC phage] | binds |  |
| GACELRGDGWCGA (disulfide 3-11 (inferred)) [cyclic peptide GAC*ELRGDGWC*GA] |  | fold less active than A*CRGDGWC*G, cell attachment to fibronectin [5]: 10 fold |
| WCRPETGWRC (on fuse 5 phage, fused to pIII) [WCRPETGWRC phage] | binds |  |
| B5 |  | binding result [1]: binds |
| B6 |  | binding result [1]: binds |
| CMWLSVNYSC (on fuse 5 phage, fused to pIII) [CMWLSVNYSC phage] |  | binding result [1]: binds |
| CVDCILRYLC (on fuse 5 phage, fused to pIII) [CVDCILRYLC phage] |  | binding result [1]: binds |
| GACRRETAWACGA (disulfide 3-11 (inferred)) [cyclic peptide GACRRETAWACGA] |  | IC50 of inhibition of cell attachment to fibronectin (B2/α27 cells) [5]: 30000 nM; fold less active than the cyclic RGD peptide, inhibition of cell attachment to fibronectin [12]: > 100 ×; fold less active than …, inhibition of cell attachment to fibronectin [12]: ~40 × |
| GRGDSPK (also: coupled to Sepharose, also called GRGDSPK peptide column) [Sepharose-coupled GRGDSPK peptide] |  | binding result [13]: binds |
